# How the values were obtained:
# Assay in all cases: cell_activity
# [1] = test system: hyperactive piggyBac transposase (HAhyPBase); details: excision in HeLa (step 1 and step 3 both 17%); 46% in hiPS cells (Table 17)
# [2] = test system: Sleeping Beauty transposase SB100X; details: excision in HeLa, 3 of 21 clones
# [3] = test system: phiC31 integrase (Streptomyces phage phiC31?); details: HeLa CI.24.22, 4 of 24 clones positive
# [4] = test system: gp3-phiC31 integrase fusion (Streptomyces phage phiC31?); details: HeLa CI.24.22.21.3, attL x attR recombination, 13 of 27 clones
substance,measurement,setting,value
piggyBac ITRs flanking puro-delta-tk,activity,[1],17%
Sleeping Beauty ITRs flanking puro-delta-tk,activity,[2],14%
phiC31 attB (pEP24) x attP (pEP28),activity,[3],16%
phiC31 attL (genomic) x attR (pEP50),activity,[4],48%

# From patent US20220025406
